Twelve substances from FireProtDB (doi:10.1182/blood-2007-11-122457) can be followed below.

The conditions of this data set: Homo sapiens; pH 7.4; Thermal; DSC; Sodium phosphate 10mM; NaCl 130 mM; transition: 2; reversible: yes; structure 1OWA.
The Tm is the temperature at which the thermal transition is half complete. In the case of “Spectrin alpha chain, erythrocytic 1, P02549 G46V”, the Tm was 52.8 °C and the “change of melting temperature, mutant - wild type (higher = more stable)” value (“change of melting temperature, mutant” below) is -1.8 °C.

Turning to “Spectrin alpha chain, erythrocytic 1, P02549 I24S”, the Tm is 53.2 °C and the “change of melting temperature, mutant” value was -1.4 °C.

In the case of “Spectrin alpha chain, erythrocytic 1, P02549 R28H”, the Tm was 53.6 °C and the “change of melting temperature, mutant” value is -1 °C.

Take “Spectrin alpha chain, erythrocytic 1, P02549 R45S”: the melting temperature (Tm) was 55.1 °C and the “change of melting temperature, mutant” value turned out to be 0.5 °C.

Turning to “Spectrin alpha chain, erythrocytic 1, P02549 I24T”, the melting temperature (Tm) was found to be 54.4 °C and the “change of melting temperature, mutant” value is -0.2 °C.

With “Spectrin alpha chain, erythrocytic 1, P02549 K48R”, the melting temperature (Tm) amounted to 54.7 °C and the “change of melting temperature, mutant” value was 0.1 °C.

For the substance “Spectrin alpha chain, erythrocytic 1, P02549 R28S”, the Tm was found to be 53.3 °C and the “change of melting temperature, mutant” value was -1.3 °C.

In the case of “Spectrin alpha chain, erythrocytic 1, P02549 R45T”, the Tm was 54.6 °C and the “change of melting temperature, mutant” value was 0 °C.

Turning to “Spectrin alpha chain, erythrocytic 1, P02549 R28L”, the Tm turned out to be 53.1 °C and the “change of melting temperature, mutant” value was -1.5 °C.

Turning to “Spectrin alpha chain, erythrocytic 1, P02549 V31A”, the melting temperature (Tm) was 54.5 °C and the “change of melting temperature, mutant” value was -0.1 °C.

On to “Spectrin alpha chain, erythrocytic 1, P02549 R34W”, for which the Tm amounted to 49.1 °C and the “change of melting temperature, mutant” value was -5.5 °C.

For the substance “Spectrin alpha chain, erythrocytic 1, P02549 L49F”, the midpoint of thermal melting (Tm) was found to be 55.4 °C and the “change of melting temperature, mutant” value came out at 0.8 °C.
